Source: the DeepSol protein solubility set

Assay: soluble on expression in E. coli; label from the status in PepcDB or PDB records

Sequence	soluble on expression in E. coli
MEKLLSELAELGARQKFNGEIDFGAEIASDSLLEVMKIVGSEELSQQVLEGFLEQAPTIHQVLLGMTFASYLQSTTSGEASPGAQELSEPLKKARRSIRLLLNLTQRSPDFASRISSESVELLETLLATGSFDVECLIILLKTSQATWLEFQKSPRYSALLQRVLSKYSPDFSENSTILAYFSVLFEMDYGFLSMCYAEMDAPTFCEILDVLRVILTRKTLKIHSNNLLFVLNLLELVVVDYEAFWRARERKEPQSVEQRRVATVEILNLEVEIVGEMCSNTEMTSYLNEKATAMNSVVDVLDAVSIFRNKISIFLDFFQILHAEALFADFRAEQPSDWPKIESEHPRFEVLKRKIEEERRYEETQRRYPDRPRQPLPPKIQRVESSESLSLLANTIFSKYRSIDDVIGVPRVGELKLNCLKAIANLANLSDSNKLATLQNGRQGLISVLQCTTRRPEYFLESFTMRNQSIFCVRQLTDGCQENKEVVFNLQQPNQPIIDRKRLLEELGVHVDN	not soluble
MDAWKEITKTTENDGVSTCSLSSIAFDPYSELVWTGHKNGQIKSSFGPSLTSYTQFIGHEGPVHQVLPQERGVFSLSSKSLRLSNRKGTIRWRYHSVPCVQRSMIILYSCFLCSKHAVLISRDSDCIDYRAMFYQSRNNPEVVIGGYHQKLTVVNAERGISIHKDKNVSDIFIMRRNRLLCCGSTNGEIILRDPNSFQPVNKVVAHTGTISDIDTSGNLLLSCGYSLRHGTYMLDPFVKVWDLRNLSSLVPIPFPAGPTIIRMHPKLSTTAVVCSCSGQFHIVDTGNPLDAKLMQIPLTSYLTGMDIASTGDAMVFTDVEDNIHLWSPLENPSFSDLKLPIQLPNTSTETVQLENNDPLNSIGLPYYKDELLSSWSKYLIFDVGKPILDSNLLIAKQISENSHPVPQEIKSFHRNQIIEVPWLNRKLISEGATPKFHSERQKDIMSGNDIEGSASYFEEIEDTISGPDSIPKFYQRPVIKYSKFGIEDFDFGFYNKTKYAGLETDITNSYCNSVLQLLSYVPSFSKAAISHSLGPCDLMECLLCELGFLFAMLKESTGRNCQATNFLRAFSNSSFAQSLGIVFDDYSDGTFPDSFVIQKFTKFMLTEISRIADYEDKKDGTSFPVSFLLKSFCIPEMQTYRCGICGITSQKIKSSLYIIDLHYPSQQLESILSFEWLFKMSLDRRVDLPPGWCEYCLAHQPFLLRSFIRSLPDCLFINTQVKHHEHWKLWARKNWLPKKLHLRRVNDTMQCVSQKISNLDKDQQSLSVYVLRGIIYEIRQNGEEPHFVSTIRVSDNTSSDNPDDNRWYIFNDFLVKEVTEEEALTVHGPWKIPIIVYYEKLDTKIPQWDEVSDYTLLYQPYSLNKNPPINKIQPLTTDEMLYPKMLVGIDSEFVALQQEETEVRSDGTKSTIKPSKLSLARVSVLRGEGPNKGLPFIDDYVATDDKVTDYLTEYSGIHPGDLDPDRSPYNVVPLKVAYKKLRLLVNAGCIFVGHGLQKDFRIINLLVPPEQVVDTVDLFFLSSRQRKLSLKFLAWYLLDEEIQLTEHDSIEDALTALKLYDCYDKLKSQGKLEETLDNIYEVGRRFKFRPPSVASMSLEDRNSYGDESVISNQTN	soluble
MSGLKLVTVLLLALCTATEAAKCRGKYMEMRGREGFVTRGGCRGLDSQIQEEYWTTVGFDGDLRDGRTTDDFLVFPANENNGHTQTNSFVGYWDMKESVNPITRSKYGENVHYEAFGHAFIKPDGKVCGWFVGSHKEVVEVCGGFRVLSRSRFNPHQPIPFEWVQGEQYRNRDVLGFHHHKIAKYEANADEVLFGDADVKGKKFNGVSINNEQRVEVDTPETFHRKVWLLRKKSTQPPSDVRAAYHHPRKLL	not soluble
MSSNPLRFFVLTIFPHIISCYSEYGIVKQAIKKGKVEVYPIDLREFAPKGQVDDVPYGGLPGMVLKPEPIYEAYDYVVENYGKPFVLITEPWGEKLNQKLVNELSKKERIMIICGRYEGVDERVKKIVDMEISLGDFILSGGEIVALAVIDAVSRVLPGVLSEPQSIQEDSFQNRWLGYPVYTRPREYRGMKVPEELLSGHHKLIELWKLWHRIENTVKKRPDLIPKDLTELEKDILNSILSGKSFKEWLKEHKHLL	soluble
MKSALSLLGERQQSLLTALLHHRKGLTVEELSSLLTISRNAVNQHLTHLGSSGFIQSALQESTGGRPGRVYTLTPNGLELFQRRYSFLAKLLLSWIDKNMGEHELDVCLTELGKEMASGLEHRLTQHTSRSDKLQEAITIMSELGYDTEIYRISENQAEIVANNCVFQELAQQHQEFCKLDISFLKHLLKADIEHTECIVRNGKYCRFRITSPDESGS	not soluble
MPFEKYTVPVSGRSDAAIEEELTRLRAELAAEYDLREVVHRFGESDFTFLSVLDSYALLDRIDPAAFVKDEQMPYWAEIWPAAVTLSRQIVETGELAGKSVLELGAGVGMASIAAARSGARVLCTDYSTEALRFVAYNAMKNRVPLDTARLDWRMVKGAEKFDAVIAADVLYERVNLLPIVTAIDALLAPGGAAYIADPRRRLADQFLELVHENGFEVAETRMFDAEGDQTVAVTIYKLQRLKALEHHHHHH	soluble
MPMNTTGMSFSSFGISCHRENSFRNSFRGKNDEVVKCSIGERTISFSVRKFSGNILETVRRQSTKDIDEWIKDERIVYPSRVINQEIDNYCFQKNAKISTEERQRVFFLVSQENQLTLDVKAAQSSINHVIMGSASFGKKMDALCDGMSRDVKNRTSDTIANLLADKFYQKHIDSDIDIVKLRNDIPDYLMRAIQG	not soluble
MHERERHRIILSATQEKAVVTVQDIAELTDASEATIRRDIASLHVQGKLRRVRGGAEAVHPPQLGNLAARPFRVSESVNIDKKRAIARKAVDLCNDGDAIILNGGTTTFQMVHYMAARRLQVMTNSFAIAEHLVKHSKCNVNVPGGAIYRDQSLILSPFENDAIRNFYARRIFLGAQGVGALGIMESDALVIQSEQKLMRQAEELIVMVDSSKFRKRSSLILCPLENVTTIITDDGISDEAARMVENAGVELLIAGAVAAGKTAGPPDEENSSSVALEHHHHHH	not soluble
METALYLLPVTLGDTPLEQVLPSYNTEIIRGIRHFIVEDVRSARRFLKKVDREIDIDSLTFYPLNKHTSPEDISGYLKPLAGGASMGVISEAGCPAVADPGADVVAIAQRQKLKVIPLVGPSSIILSVMASGFNGQSFAFHGYLPIEPGERAKKLKTLEQRVYAESQTQLFIETPYRNHKMIEDILQNCRPQTKLCIAANITCEGEFIQTRTVKDWKGHIPELSKIPCIFLLYKLEHHHHHH	soluble
MGSDKIHHHHHHMKRVIINADDFGLSDGVNRAVIKAWQEGILTSASLMVGGDAFHEAVHLAKANPGLHVGLHLTLVQGRAVGEHGGFPSICDSKGAFSDDPVQTGMRYFFIRSFRKQLYREIEAQIVRFLQTGLPLSHVDGHLNIHMHPVVFDLLCGLMRKHGITTFRLCRENLRANLTLDRERRFGKMVDAFIFSKLAGRCRPILDHLGIGYAQEVKGLLNSGRMTEEYLLRVLDTLEDGTTELYFHPGCLPCAEITRRMPDYRHEEELAALMSPRVKGRLKELGIELGNYRGEVKTYV	not soluble
AGMSEAPRAETFVFLDLEATGLPSVEPEIAELSLFAVHRSSLENPEHDESGALVLPRVLDKLTLCMCPERPFTAKASEITGLSSEGLARCRKAGFDGAVVRTLQAFLSRQAGPICLVAHNGFDYDFPLLCAELRRLGARLPRDTVCLDTLPALRGLDRAHSHGTRARGRQGYSLGSLFHRYFRAEPSAAHSAEGDVHTLLLIFLHRAAELLAWADEQARGWAHIEPMYLPPDDPSLEA	soluble
MNTSTTKPFAWPAHVFKEYDIRGRAGEELDESFAYWLGRAFADMMQKEGEKRAVVGHDNRLSSPGLHRALKDGLLDGGCDVVDIGLSTTPMFYYSLYYTNIPCGMIITASHNPGDENGFKIAMGKTTIYGERIQALRRAMERLSQEQPRPETARGREETLDLAPAYIKMLKEKIQLGPRKLKVVVDCGNGTPSIIAPQVLKEWGCDVVPLYCESDPTFPNHHPDPVVPENLTALIEMVRKEQADLGIAFDGDGDRIGVVDETGAIRWGDQLMVLFWREILKRYPGADAPVEVKCSQALVEEIERLGGKPFFHRTGHSHVKATLRRRPEIPFAGEMSGHLFFNDEFYGYDDALYAAGRLLRLLSHDERPLSEWFADVPRYAATPETRVACPEEKKPAAIAAVKNQFAGRYPVVDVDGARIQFPEGWGLVRPSNTQPILVLRAEAKTEEALAEIKRQLADCLHALELCIDW	soluble
MGSDKIHHHHHHMLVKKISPRGYCYGVVDAMKLAQQAALNDNLPRPIHILGMIVHNAHVTREFERMGVLTVDGPDRLEALETIKEGTVIFTAHGISPAVYARAAEKKLTVVDATCPDVTRTHDLIRSVVADDYEVIYVGKHGHPEPEGAVGVAPEHVHLIEKVEDIEALPAHLADKKIIVTNQTTMSQWDVQALMEHVRKKYPHVEVHNEICNATQVRQEAVAEQAGDCDLVIVVGDPRSNNSNRLAQVSFDIAATPAHRIGDLTELDLSWLDGVNQVGVTSGASTPTPITKKVIDFLQQYDPADISTHDKTPFLELRRILPKVKIL	not soluble
MGSDKIHHHHHHQIQQQSPYPKREFRGAWIQAVNGQFRGIPTEKLKQTLIDQLNSLQGAGINAIIFQVRPEADALYASQLEPWSRFLTGVQGQAPSPYWDPMQFMIDECHKRGMEFHAWINPYRVKTSLKSELSANHLYNIHPEWFVTYNNQLFFDPALPESRRHICMVVADIVSRYDVDAIHMDDYFYPYPAKGMDFPDDASFARYGGGFTNRADWRRSNVNILIQKIHETIRGLKPWVKFGISPFGIYRNEKNDPLGSKTNGLQNYDDLYADVLLWARNGWVDYNIPQIYWQIGHPAADYETLVKWWAKNTENRPLFIGQSVMNTIQNADPKNPSMNQLPRKMALERAYQTIGGSCQWPASAVVENAGKYRDALVQEYHKYPALVPVFDFMDDKAPGKVRKVKKVWTEDGYMLFWTPPKAKDEMDRAVQYVVYRFGDKEKVNIDDASHIVAVTRNNFYKLPYKDGKNKYRYVVTALDRLHNESKSVSKKVKL	not soluble
NIQYEERVSVQADLGSQTLHVRGLIDSGNQLYDPLTKTPVMIIYIDKLEPIFGTAETMIIRNTDPLEAIEQLDDSFRFLDKMRLIPYRGVGQQNQFLLCVKPDHVTIMTKEEMISADKCLIGISTTKLSADGEFDAIIHPKMLSGKAVKH	not soluble
MTKRHVSLPADAKDVRRAFVSGVDERLSAAETPDELATAVTGTLADLRGERDAYEAWRDGDDVRPAAAARLATLDPRNASLESEYYAEKDEAAFARSKPLQWLWRQFDTTPLADNVDVALPFRRMLAGHLFAGVGEDVRLFKGITMTYGHNIELGDNAVVHDGVHLDDRGELVVGARASVSNGAHLYTHDHDVVDQTDVTNYRTEIGADARVTQGALVRAGVRVGENALVGSRSVVQGDVPAHHIAVGSPAESVRVKPGWEAVAAPLDAGLEHHHHHH	soluble
MAELYDGPIVDAHHHFWDPQANYHPWLAEDAKIPFRYGDYSAIKRRYLPADYFGDVGAHRVVETVYVETEWDPRDPLGETRFVHHLAERHGAPHAVVAQAWLDAPDAAEVLAAQAGFARVRSVRHKPGGPQRPQQVGELRSLMSDERWRRGYAELARHGLHFDLQTPWWNLAEAACLARDFPDTLIVLNHAGLPSDRSEEGLAAWQRAMARFAECPNVALKISGIGQAGRRWSVEDNAWIVRESIALFGVERAMFASNFPVDSLCGSFDDIYGGFKRIVADLPYADQERLFHSNARRIYRTVPDTVRLQQASPDPRTSP	not soluble
MNAVTEGRKVLLEIADLKVHFEIKDGKQWFWQPPKTLKAVDGVTLRLYEGETLGVVGESGCGKSTFARAIIGLVKATDGHVAWLGKELLGMKPDEWRAVRSDIQMIFQDPLASLNPRMTIGEIIAEPLRTYHPKMSRQEVRERVKAMMLKVGLLPNLINRYPHEFSGGQCQRIGIARALILEPKLIICDEPVSALDVSIQAQVVNLLQQLQREMGLSLIFIAHDLAVVKHISDRVLVMYLGHAVELGTYDEVYHNPLHPYTRALMSAVPIPDPDLEKNKTIQLLEGELPSPINPPSGCVFRTRCPIAGPECAKTRPVLEGSFRHAVSCLKVDPL	not soluble
